Reference: the supplement of paper PMC7125110
± gives the standard error. For some of these results: Fewer inactive variants are shown than the library holds.

B1: glmS ribozyme (parent)
chain: AUAAAAGCGCCAGAACUACAGAAAUGUAGUUGACGAGGAGGAGGUUUAUCGAAUUUUCGGCGGAUGCCUCCAAA

Assays:
Settings in all cases: with glucosamine-6-phosphate
glucosamine-6-phosphate [1] = variants of: B1; assay: kcat; higher = faster cleavage; RNA array
In short: (§1)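 Ribozyme variants carrying barcodes were transcribed in situ on sequenced MiSeq chips by E. coli RNA polymerase and tracked at 37 °C with a hybridised Cy3 probe. They were exposed to 40 μM to 10 mM glucosamine-6-phosphate in HEPES/KCl/Mg(OAc)2 buffer. kobs came from exponential decay fits of normalised per-tile medians, and kcat and KM from weighted Michaelis–Menten fits.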

glucosamine-6-phosphate [2] = variants of: B1; assay: KM; higher = weaker cofactor use; RNA array
In short: as §1

glucosamine-6-phosphate [3] = variants of: B1; assay: self-cleavage kobs at 2500 uM GlcN6P; higher = faster cleavage; RNA array
In short: as §1

glucosamine-6-phosphate [4] = variants of: B1; assay: self-cleavage kobs at 10000 uM GlcN6P; higher = faster cleavage; RNA array
In short: as §1

glucosamine-6-phosphate [5] = variants of: B1; assay: self-cleavage kobs at 40 uM GlcN6P; higher = faster cleavage; RNA array
In short: as §1

glucosamine-6-phosphate [6] = variants of: B1; assay: self-cleavage kobs at 640 uM GlcN6P; higher = faster cleavage; RNA array
In short: as §1

glucosamine-6-phosphate [7] = variants of: B1; assay: self-cleavage kobs at 160 uM GlcN6P; higher = faster cleavage; RNA array
In short: as §1

Variant | kcat (glucosamine-6-phosphate [1]) [s⁻¹] | KM (glucosamine-6-phosphate [2]) [µM] | self-cleavage kobs at 2500 uM GlcN6P (glucosamine-6-phosphate [3]) [s⁻¹] | self-cleavage kobs at 10000 uM GlcN6P (glucosamine-6-phosphate [4]) [s⁻¹] | self-cleavage kobs at 40 uM GlcN6P (glucosamine-6-phosphate [5]) [s⁻¹] | self-cleavage kobs at 640 uM GlcN6P (glucosamine-6-phosphate [6]) [s⁻¹] | self-cleavage kobs at 160 uM GlcN6P (glucosamine-6-phosphate [7]) [s⁻¹]
G7A | 4.39e-05 ± 1.2e-06 | 4040 ± 350 | 1.71e-05 ± 2.6e-06 | 3.13e-05 ± 1.1e-06 | – | – | –
G7A A53U | 2.79e-05 ± 1.1e-05 | – | – | – | – | – | –
A6C G37U | < 1e-05 | – | – | – | < 1e-05 | – | –
A6G U46G C68U | 3.96e-05 ± 1.9e-05 | – | 4.82e-05 ± 2.3e-05 | – | – | – | –
A6G C71U | 6.03e-05 ± 2.1e-06 | 1890 ± 260 | 3.33e-05 ± 8e-06 | 5.1e-05 ± 6.3e-06 | – | – | –
A6G U30A | 5.86e-05 ± 1.4e-05 | – | 3.73e-05 ± 1e-05 | 4.4e-05 ± 1.9e-05 | – | – | –
G7U G38C | < 1e-05 | – | – | < 1e-05 | < 1e-05 | < 1e-05 | –
G7U G66U C70G | < 1e-05 | – | < 1e-05 | – | – | – | –
A6U C71G | 3.27e-05 ± 8.4e-06 | – | 2.85e-05 ± 1e-05 | 2.69e-05 ± 8e-06 | – | 5.72e-05 ± 1.3e-05 | –
A6U C71A | 5.43e-05 ± 1.1e-06 | 1730 ± 140 | 3.22e-05 ± 1.3e-05 | 4.63e-05 ± 1.1e-05 | – | – | –
A6U A52G | < 1e-05 | – | – | – | – | < 1e-05 | < 1e-05
A6U A52U | < 1e-05 | – | – | < 1e-05 | – | – | < 1e-05
A6C U45G | < 1e-05 | – | – | – | – | – | –
G7C C10G C67G | 1.87e-05 ± 2.3e-06 | – | – | – | – | – | –
A6U A42G | 0.000505 ± 0.00011 | 3730 ± 1400 | 0.000156 ± 5.1e-05 | 0.00038 ± 6e-05 | – | 8.54e-05 ± 1.6e-05 | –
A6C C16U | 0.000207 ± 4.9e-05 | – | 3.13e-05 ± 9e-06 | 8.88e-05 ± 1.1e-05 | – | – | –
A6G C67U | 0.000111 ± 4.4e-05 | – | – | 8.08e-05 ± 7.3e-06 | – | – | –
A6U C61G | < 1e-05 | – | – | – | – | < 1e-05 | < 1e-05
A6C U47G | 1.58e-05 ± 2.8e-06 | – | – | – | – | – | –
A6C U47C | 1.02e-05 ± 2.4e-07 | 526 ± 77 | – | – | – | – | < 1e-05
A6C U47A | 0.0001 ± 5.6e-06 | 6300 ± 770 | – | 6.15e-05 ± 1.4e-05 | – | – | –
A6U A14U | 4.98e-05 ± 1.9e-06 | 310 ± 92 | 4.51e-05 ± 1.4e-05 | 4.79e-05 ± 6.3e-06 | – | 3.6e-05 ± 1.2e-05 | –
A6U G35U G38C A53U A64G | < 1e-05 | – | – | – | – | – | < 1e-05

Variant | kcat (glucosamine-6-phosphate [1]) [s⁻¹] | KM (glucosamine-6-phosphate [2]) [µM] | self-cleavage kobs at 2500 uM GlcN6P (glucosamine-6-phosphate [3]) [s⁻¹] | self-cleavage kobs at 10000 uM GlcN6P (glucosamine-6-phosphate [4]) [s⁻¹] | self-cleavage kobs at 40 uM GlcN6P (glucosamine-6-phosphate [5]) [s⁻¹] | self-cleavage kobs at 640 uM GlcN6P (glucosamine-6-phosphate [6]) [s⁻¹] | self-cleavage kobs at 160 uM GlcN6P (glucosamine-6-phosphate [7]) [s⁻¹]
C8A C61U G66A | < 1e-05 | – | < 1e-05 | – | – | < 1e-05 | –
A6G G66A | 0.000421 ± 2.1e-05 | 2650 ± 210 | 0.000217 ± 5.1e-05 | 0.000325 ± 7.5e-05 | – | 8.05e-05 ± 1.4e-05 | –
A6U C16U | 0.000238 ± 2.8e-05 | 1970 ± 520 | 0.000118 ± 1.2e-05 | 0.00021 ± 1.7e-05 | – | 6.36e-05 ± 7.9e-06 | 2.54e-05 ± 9.5e-06
A6U C16G | 5.15e-05 ± 3.5e-06 | 3290 ± 720 | 2.28e-05 ± 1e-05 | 3.87e-05 ± 6.9e-06 | – | – | –
A6U U30G | 4.09e-05 ± 8.6e-06 | – | 4.14e-05 ± 1.3e-05 | 3.5e-05 ± 9.7e-06 | < 1e-05 | – | –
A6U U30A | 3.27e-05 ± 4.2e-06 | – | – | 2.86e-05 ± 1e-05 | < 1e-05 | – | < 1e-05
A6U C58U C70G | 1.51e-05 ± 4.3e-06 | – | – | – | – | – | –
G7U A48U C50G U54G | 3.22e-05 ± 1.3e-05 | – | – | – | – | – | –
A6G U65A | 7.49e-05 ± 1.1e-05 | – | 4.41e-05 ± 1.2e-05 | 6.05e-05 ± 9.8e-06 | – | – | –
U2A G29U | 0.00852 ± 0.0033 | – | – | 0.00749 ± 0.0017 | 0.000181 ± 3.8e-05 | 0.00137 ± 0.00032 | 0.000569 ± 0.00018
A6G C10A | < 1e-05 | – | – | < 1e-05 | < 1e-05 | – | –
C8A U49C | < 1e-05 | – | < 1e-05 | – | – | < 1e-05 | –
C8U C11U C34G A36U | 1.07e-05 ± 9.9e-07 | – | – | – | – | – | < 1e-05
G7A C70U | 6.43e-05 ± 1.1e-05 | 5580 ± 2200 | – | 4.14e-05 ± 7.5e-06 | – | – | –
G7U A36C A48U | < 1e-05 | – | – | – | – | < 1e-05 | –
C8A C70A | 1.28e-05 ± 2.3e-06 | – | – | – | – | – | –
C8A C70U | < 1e-05 | – | – | – | – | – | < 1e-05
A6U C68A | < 1e-05 | – | – | – | – | – | –
A6G G37U | < 1e-05 | – | – | < 1e-05 | < 1e-05 | – | < 1e-05
G7C A53G | < 1e-05 | – | – | < 1e-05 | – | – | –
G7U C67G | < 1e-05 | – | < 1e-05 | – | – | – | –
G7U C67U | < 1e-05 | – | < 1e-05 | – | < 1e-05 | – | < 1e-05
A6G A39U | 0.000276 ± 7.5e-06 | 1490 ± 84 | 0.000176 ± 2.3e-05 | 0.000239 ± 3.2e-05 | – | 8.14e-05 ± 1.2e-05 | 2.95e-05 ± 1.1e-05
